The chains are these.
B1: GpH7-A5/GpH7-B3 variant P271_08L/GpL16-k0 (He Ab) (antibody, human IgG1, kappa)
heavy 1: not shown
heavy 2: not shown
light: DIVMTQSPLSLPVTPGEPASISCQASESLVHSNRNTYLHWYLQKPGQSPQLLIYKVSNRFSGVPDRFSGSGSGTDFTLKISRVEAEDVGVYYCSQNTHVPPTFGQGTKVEIERTVAAPSVFIFPPSDEQLKSGTASVVCLLNNFYPREAKVQWKVDNALQSGNSQESVTEQDSKDSTYSLSSTLTLSKADYEKHKVYACEVTHQGLSSPVTKSFNRGEC
notes: Substitution in one H chain only; position in EU numbering; also called P271L heterodimerized antibody
B2: GpH7-A5/GpH7-B3 variant S239_18N/GpL16-k0 (He Ab) (antibody, human IgG1, kappa)
heavy 1: not shown
heavy 2: not shown
light: DIVMTQSPLSLPVTPGEPASISCQASESLVHSNRNTYLHWYLQKPGQSPQLLIYKVSNRFSGVPDRFSGSGSGTDFTLKISRVEAEDVGVYYCSQNTHVPPTFGQGTKVEIERTVAAPSVFIFPPSDEQLKSGTASVVCLLNNFYPREAKVQWKVDNALQSGNSQESVTEQDSKDSTYSLSSTLTLSKADYEKHKVYACEVTHQGLSSPVTKSFNRGEC
notes: Substitution in one H chain only; position in EU numbering; also called S239N heterodimerized antibody
B3: GpH7-A5/GpH7-B3 variant S267_07I/GpL16-k0 (He Ab) (antibody, human IgG1, kappa)
heavy 1: not shown
heavy 2: not shown
light: DIVMTQSPLSLPVTPGEPASISCQASESLVHSNRNTYLHWYLQKPGQSPQLLIYKVSNRFSGVPDRFSGSGSGTDFTLKISRVEAEDVGVYYCSQNTHVPPTFGQGTKVEIERTVAAPSVFIFPPSDEQLKSGTASVVCLLNNFYPREAKVQWKVDNALQSGNSQESVTEQDSKDSTYSLSSTLTLSKADYEKHKVYACEVTHQGLSSPVTKSFNRGEC
notes: Substitution in one H chain only; position in EU numbering; also called S267I heterodimerized antibody
B4: GpH7-A5/GpH7-B3 variant T335_04F/GpL16-k0 (He Ab) (antibody, human IgG1, kappa)
heavy 1: not shown
heavy 2: not shown
light: DIVMTQSPLSLPVTPGEPASISCQASESLVHSNRNTYLHWYLQKPGQSPQLLIYKVSNRFSGVPDRFSGSGSGTDFTLKISRVEAEDVGVYYCSQNTHVPPTFGQGTKVEIERTVAAPSVFIFPPSDEQLKSGTASVVCLLNNFYPREAKVQWKVDNALQSGNSQESVTEQDSKDSTYSLSSTLTLSKADYEKHKVYACEVTHQGLSSPVTKSFNRGEC
notes: Substitution in one H chain only; position in EU numbering; also called T335F heterodimerized antibody
B5: GpH7-A5/GpH7-B3 variant S267_08L/GpL16-k0 (He Ab) (antibody, human IgG1, kappa)
heavy 1: not shown
heavy 2: not shown
light: DIVMTQSPLSLPVTPGEPASISCQASESLVHSNRNTYLHWYLQKPGQSPQLLIYKVSNRFSGVPDRFSGSGSGTDFTLKISRVEAEDVGVYYCSQNTHVPPTFGQGTKVEIERTVAAPSVFIFPPSDEQLKSGTASVVCLLNNFYPREAKVQWKVDNALQSGNSQESVTEQDSKDSTYSLSSTLTLSKADYEKHKVYACEVTHQGLSSPVTKSFNRGEC
notes: Substitution in one H chain only; position in EU numbering; also called S267L heterodimerized antibody
B6: GpH7-A5/GpH7-B3 variant T335_08L/GpL16-k0 (He Ab) (antibody, human IgG1, kappa)
heavy 1: not shown
heavy 2: not shown
light: DIVMTQSPLSLPVTPGEPASISCQASESLVHSNRNTYLHWYLQKPGQSPQLLIYKVSNRFSGVPDRFSGSGSGTDFTLKISRVEAEDVGVYYCSQNTHVPPTFGQGTKVEIERTVAAPSVFIFPPSDEQLKSGTASVVCLLNNFYPREAKVQWKVDNALQSGNSQESVTEQDSKDSTYSLSSTLTLSKADYEKHKVYACEVTHQGLSSPVTKSFNRGEC
notes: Substitution in one H chain only; position in EU numbering; also called T335L heterodimerized antibody
B7: GpH7-A5/GpH7-B3 variant S267_02A/GpL16-k0 (He Ab) (antibody, human IgG1, kappa)
heavy 1: not shown
heavy 2: not shown
light: DIVMTQSPLSLPVTPGEPASISCQASESLVHSNRNTYLHWYLQKPGQSPQLLIYKVSNRFSGVPDRFSGSGSGTDFTLKISRVEAEDVGVYYCSQNTHVPPTFGQGTKVEIERTVAAPSVFIFPPSDEQLKSGTASVVCLLNNFYPREAKVQWKVDNALQSGNSQESVTEQDSKDSTYSLSSTLTLSKADYEKHKVYACEVTHQGLSSPVTKSFNRGEC
notes: Substitution in one H chain only; position in EU numbering; also called S267A heterodimerized antibody
B8: GpH7-A5/GpH7-B3 variant S267_09D/GpL16-k0 (He Ab) (antibody, human IgG1, kappa)
heavy 1: not shown
heavy 2: not shown
light: DIVMTQSPLSLPVTPGEPASISCQASESLVHSNRNTYLHWYLQKPGQSPQLLIYKVSNRFSGVPDRFSGSGSGTDFTLKISRVEAEDVGVYYCSQNTHVPPTFGQGTKVEIERTVAAPSVFIFPPSDEQLKSGTASVVCLLNNFYPREAKVQWKVDNALQSGNSQESVTEQDSKDSTYSLSSTLTLSKADYEKHKVYACEVTHQGLSSPVTKSFNRGEC
notes: Substitution in one H chain only; position in EU numbering; also called S267D heterodimerized antibody
B9: GpH7-A5/GpH7-B3 variant S239_08L/GpL16-k0 (He Ab) (antibody, human IgG1, kappa)
heavy 1: not shown
heavy 2: not shown
light: DIVMTQSPLSLPVTPGEPASISCQASESLVHSNRNTYLHWYLQKPGQSPQLLIYKVSNRFSGVPDRFSGSGSGTDFTLKISRVEAEDVGVYYCSQNTHVPPTFGQGTKVEIERTVAAPSVFIFPPSDEQLKSGTASVVCLLNNFYPREAKVQWKVDNALQSGNSQESVTEQDSKDSTYSLSSTLTLSKADYEKHKVYACEVTHQGLSSPVTKSFNRGEC
notes: Substitution in one H chain only; position in EU numbering; also called S239L heterodimerized antibody
B10: GpH7-A5/GpH7-B3 variant S239_09D/GpL16-k0 (He Ab) (antibody, human IgG1, kappa)
heavy 1: not shown
heavy 2: not shown
light: DIVMTQSPLSLPVTPGEPASISCQASESLVHSNRNTYLHWYLQKPGQSPQLLIYKVSNRFSGVPDRFSGSGSGTDFTLKISRVEAEDVGVYYCSQNTHVPPTFGQGTKVEIERTVAAPSVFIFPPSDEQLKSGTASVVCLLNNFYPREAKVQWKVDNALQSGNSQESVTEQDSKDSTYSLSSTLTLSKADYEKHKVYACEVTHQGLSSPVTKSFNRGEC
notes: Substitution in one H chain only; position in EU numbering; also called S239D heterodimerized antibody

This assay deals with T1, FcγRIIb extracellular domain with C-terminal His tag (human, UniProt P31994 43-217).
T1 construct: extracellular domain; Expressed in FreeStyle293 cells; used as analyte in Biacore; also called FcgRIIb; 2b; not shown: C-terminal His tag
T1 sequence (looked up): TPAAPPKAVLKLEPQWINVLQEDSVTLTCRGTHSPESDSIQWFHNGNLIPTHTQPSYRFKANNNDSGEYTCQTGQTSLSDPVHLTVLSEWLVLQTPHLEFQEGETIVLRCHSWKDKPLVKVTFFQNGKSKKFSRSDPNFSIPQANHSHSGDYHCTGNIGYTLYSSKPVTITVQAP
As to the kind of experiment: SPR (Biacore), antibody captured on antigen-peptide chip, FcgRIIb as analyte; binding relative to GpH7-A5/GpH7-B3/GpL16-k0 (HeCon Ab) = 100. (In general: In SPR one partner is held on a chip, and binding of the other changes the refractive index at the surface.)
Turning to B1, the He/Con_2b is 103 % of control.

Turning to B2, the He/Con_2b is 119 % of control.

In the case of B3, the He/Con_2b was 192 % of control.

For the molecule B4, the He/Con_2b was 103 % of control.

As for B5, the He/Con_2b is 109 % of control.

For B6, the He/Con_2b was 104 % of control.

B7: the He/Con_2b was 243 % of control.

For B8, the He/Con_2b was 310 % of control.

Consider B9, for which the He/Con_2b was 140 % of control.

With B10, the He/Con_2b is 206 % of control.
